According to article doi:10.1101/2022.10.17.512631 (bioRxiv, 2022):

Molecular target: METTL3 (human, UniProt Q86U44 1-580)
Test: SPR

METTL3, sequence (Q86U44 whole entry): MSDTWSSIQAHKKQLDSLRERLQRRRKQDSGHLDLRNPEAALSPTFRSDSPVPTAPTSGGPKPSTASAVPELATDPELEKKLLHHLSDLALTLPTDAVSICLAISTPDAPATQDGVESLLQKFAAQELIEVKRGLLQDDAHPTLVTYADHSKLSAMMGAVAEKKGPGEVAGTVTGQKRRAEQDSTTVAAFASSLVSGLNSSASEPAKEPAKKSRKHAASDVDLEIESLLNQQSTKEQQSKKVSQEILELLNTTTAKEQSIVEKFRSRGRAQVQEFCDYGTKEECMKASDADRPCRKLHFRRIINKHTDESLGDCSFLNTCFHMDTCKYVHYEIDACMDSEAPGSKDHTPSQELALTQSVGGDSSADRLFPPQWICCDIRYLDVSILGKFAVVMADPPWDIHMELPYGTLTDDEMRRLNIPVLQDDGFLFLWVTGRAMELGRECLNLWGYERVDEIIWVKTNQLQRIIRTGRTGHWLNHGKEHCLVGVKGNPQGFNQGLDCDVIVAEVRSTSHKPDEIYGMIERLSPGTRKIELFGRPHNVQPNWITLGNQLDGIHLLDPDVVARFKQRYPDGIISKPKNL

B1: HEXIM1 (natural protein)
chain: MAEPFLSEYQHQPQTSNCTGAAAVQEELNPERPPGAEERVPEEDSRWQSRAFPQLGGRPGPEGEGSLESQPPPLQTQACPESSCLREGEKGQNGDDSSAGGDFPPPAEVEPTPEAELLAQPCHDSEASKLGAPAAGGEEEWGQQQRQLGKKKHRRRPSKKKRHWKPYYKLTWEEKKKFDEKQSLRASRIRAEMFAKGQPVAPYNTTQFLMDDHDQEEPDLKTGLYSKRAAAKSDDTSDDDFMEEGGEEDGGSDGMGGDGSEFLQRDFSETYERYHTESLQNMSKQELIKEYLELEKCLSRMEDENNRLRLESKRLGGDDARVRELELELDRLRAENLQLLTENELHRQQERAPLSKFGD
For B1, the Kd was ~270 nM.
